Reference: patent publication US20180186877A1, “METHOD FOR SUPPRESSING BLOOD COAGULATION REACTION FOR WHICH LOX-1 IS RESPONSIBLE” (NATIONAL CEREBRAL AND CARDIOVASCULAR CENTER, priority 2013, published 2018)

Target: LOX-1 (immobilised on the ELISA plate in Examples 3 to 6; recombinant LOX-1 protein immobilised in the test tube in Example 8) (UniProt P78380)
Assay: ELISA, LOX-1 immobilised at 5 ug/mL, recombinant A2 domain 0-10 ug/mL, anti-V5 detection

Sequence of Recombinant A2 domain of the H chain of FV (NM000130.4, aa 317-656, V5-6xHis; Igk secretion signal) (P12259 345-684 limits assumed, form in doubt): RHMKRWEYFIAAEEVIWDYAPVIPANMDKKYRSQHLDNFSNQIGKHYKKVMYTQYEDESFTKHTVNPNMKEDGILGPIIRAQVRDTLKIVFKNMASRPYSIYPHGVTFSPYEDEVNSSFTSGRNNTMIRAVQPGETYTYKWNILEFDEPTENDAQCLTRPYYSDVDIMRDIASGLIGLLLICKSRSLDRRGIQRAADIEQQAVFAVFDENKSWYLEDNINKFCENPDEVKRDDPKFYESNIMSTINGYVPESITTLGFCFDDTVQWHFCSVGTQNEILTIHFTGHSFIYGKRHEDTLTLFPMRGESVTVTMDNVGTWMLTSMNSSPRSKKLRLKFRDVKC

EC50 (read off the curve): 1 µg/mL
Substance: Recombinant A2 domain of the H chain of FV (NM000130.4, aa 317-656, V5-6xHis; Igk secretion signal) (from UniProt P12259 345-684)
